{
  "source": "paper PMC2811748",
  "about": "“H^+-Independent Glutamine Transport in Plant Root Tips” (PLoS ONE, 2010)",
  "proteins": {"B1": {"name": "CAT8 (Arabidopsis thaliana) (protein)", "chain": "MIPASMEEAHQLESRSDDLSQRRSYWRWRKQDFFPEFSFQSFSTYKSALSATCPRLADRLLSRSSDAYELDAARRESENPMRRCLTWWDLLWLSFGSVVGSGVFVITGQEARVGAGPAVVLSYAISGVSALLSVLCYAEFGVEIPVAGGSFSYLRVELGDFIAFIAAGNILLEAMVGAAGLGRSWSSYLASLVKNDSDYFRIKVDSFAKGFDLLDPVAVAVLLVANGIAMTGTKRTSWLNLITSMVTVCIIVFIVVVGFTHSKTSNLVPFFPYGAKGVVQSAAVVYWSYTGFDMVANMAEETEKPSRDIPIGLVGSMSMITVVYCLMALALTMMVKYTEIDANAAYSVAFAQIGMKWAKYLVGICALKGMTTSLLVGSLGQARYTTQIARSHMIPPWFALVHPKTGTPIYATLLVTILSSIISFFTSLEVLSSVFSFATLFIFMLVAVALLVRRYYVKDVTPEAGLLKFLGFLFLIIASSIGVSALWNSGVKGWIAYTVTGVIWFIGTLGLALLPKYRVPKVWGVPLVPWLPSFSIAMNLFLIGSLGYVAFLRFIICTMVMLLYYLFVGLHATYDVAHQPLEEAKFEGER", "notes": "CAT8 (At1g17120) expressed in Xenopus oocytes and in yeast 22Δ8AA"}},
  "substrate": "NC(=O)CC[C@H](N)C(=O)O",
  "experiment": "cells, lysate or membranes",
  "assay_type": "cell-based, Arabidopsis thaliana",
  "data": [
    {"protein": "B1", "values": [
      {"measurement": "Km", "result": 100, "unit": "µM"}
    ]}
  ]
}
